15 molecules from patent US20240270821A1, “GIP/GLP1/GCG TRI-RECEPTOR AGONISTS AND USES THEREOF” (priority 2023, published 2024) can be followed below.

Substitutions are numbered along the chain they refer to.

Assay in all cases: cell-based or functional assay
The target in assay [1] is human glucagon receptor (human) (UniProt P47871).
Assay [2] has as its target T1, human GIP receptor (human) (UniProt P48546).
T1 sequence (looked up): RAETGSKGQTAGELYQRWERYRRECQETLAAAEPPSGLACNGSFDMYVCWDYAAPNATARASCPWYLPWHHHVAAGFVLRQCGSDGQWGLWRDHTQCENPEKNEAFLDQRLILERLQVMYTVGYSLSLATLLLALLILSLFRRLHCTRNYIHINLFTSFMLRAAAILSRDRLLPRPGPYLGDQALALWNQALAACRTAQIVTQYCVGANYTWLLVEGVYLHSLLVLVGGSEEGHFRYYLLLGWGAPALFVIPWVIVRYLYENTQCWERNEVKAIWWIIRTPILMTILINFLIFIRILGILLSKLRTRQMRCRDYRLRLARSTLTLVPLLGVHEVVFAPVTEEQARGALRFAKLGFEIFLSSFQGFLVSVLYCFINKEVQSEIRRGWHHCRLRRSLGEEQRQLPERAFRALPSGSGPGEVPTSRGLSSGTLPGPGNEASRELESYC

The target of assay [3] is hGLP-1R (Homo sapiens, UniProt P43220).
hGLP-1R, sequence (P43220 24-463): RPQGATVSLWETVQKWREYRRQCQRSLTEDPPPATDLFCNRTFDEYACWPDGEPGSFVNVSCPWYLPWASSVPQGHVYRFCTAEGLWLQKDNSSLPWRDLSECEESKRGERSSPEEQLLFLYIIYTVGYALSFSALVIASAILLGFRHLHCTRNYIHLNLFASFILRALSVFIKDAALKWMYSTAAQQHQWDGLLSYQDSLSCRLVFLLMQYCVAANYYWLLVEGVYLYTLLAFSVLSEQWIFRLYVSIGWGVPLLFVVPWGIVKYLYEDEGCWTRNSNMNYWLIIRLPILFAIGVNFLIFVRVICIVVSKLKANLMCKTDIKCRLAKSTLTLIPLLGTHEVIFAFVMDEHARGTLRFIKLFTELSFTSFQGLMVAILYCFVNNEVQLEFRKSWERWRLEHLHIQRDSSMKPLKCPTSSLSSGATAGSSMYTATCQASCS

human glucagon receptor (human), sequence (P47871 26-477): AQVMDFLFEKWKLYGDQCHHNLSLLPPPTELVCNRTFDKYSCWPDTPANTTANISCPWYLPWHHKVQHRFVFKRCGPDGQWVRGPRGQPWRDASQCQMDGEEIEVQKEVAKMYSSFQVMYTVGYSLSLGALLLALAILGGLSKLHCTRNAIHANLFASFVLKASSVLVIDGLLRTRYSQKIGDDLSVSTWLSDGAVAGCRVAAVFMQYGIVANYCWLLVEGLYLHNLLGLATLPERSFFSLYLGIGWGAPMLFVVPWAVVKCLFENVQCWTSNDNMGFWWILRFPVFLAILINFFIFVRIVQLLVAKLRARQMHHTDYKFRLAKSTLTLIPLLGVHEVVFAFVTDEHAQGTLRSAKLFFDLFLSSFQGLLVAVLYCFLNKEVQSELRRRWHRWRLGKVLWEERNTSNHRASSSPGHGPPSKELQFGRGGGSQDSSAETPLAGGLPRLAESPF

B1: Example 466 (peptide)
chain: HXQGTXTSDXXIXLDXKAQXAFIEYLLEGGPSSGEPPPE
modifications: synthetic construct; SITE 2: note = 2-Aminoisobutyric Acid; SITE 6: note = alpha-methyl-2-fluoro-L-phenylalanine; SITE 10: note = 3-(4-Pyridyl)-L-alanine; SITE 11: note = alpha-methyl-L-serine; SITE 13: note = alpha-methyl-leucine; SITE 16: note = L-ornithine; SITE 17: note = Lysine is chemically mo
In the case of B1, the Relative cAMP EC50, nM (0.1% casein) in assay [1] stood at 5.84 nM; in assay [2], 0.0466 nM; in assay [3] it was 0.207 nM. Besides, the cAMP Rel EC50 (receptor-expressing HEK-293 cells, 1% HSA) in assay [1] came to 348 nM; in assay [2] it was 5.65 nM; in assay [3], 13.3 nM.

B2: Example 447 (peptide)
chain: YXQGTXTSDXXEXLDXKAQXXFIEXLIEGGPSSGEPPPE
modifications: synthetic construct; SITE 2: note = 2-Aminoisobutyric Acid; SITE 6: note = alpha-methyl-2-fluoro-L-phenylalanine; SITE 10: note = 3-(4-Pyridyl)-L-alanine; SITE 11: note = alpha-methyl-L-serine; SITE 13: note = alpha-methyl-leucine; SITE 16: note = L-ornithine; SITE 17: note = Lysine is chemically mo
Take B2: the Relative cAMP EC50, nM (0.1% casein) was determined as 9.71 nM in assay [1], 0.0177 nM in assay [2] and 0.214 nM in assay [3]. In addition, the values for the cAMP Rel EC50 (receptor-expressing HEK-293 cells, 1% HSA) in assay [1], in assay [2] and in assay [3] were 1090 nM, 1.81 nM and 11.3 nM, respectively.

B3: Example 457 (peptide)
chain: B2 chain with E12I, X21T
modifications: synthetic construct; SITE 2: note = 2-Aminoisobutyric Acid; SITE 6: note = alpha-methyl-2-fluoro-L-phenylalanine; SITE 10: note = 3-(4-Pyridyl)-L-alanine; SITE 11: note = alpha-methyl-L-serine; SITE 13: note = alpha-methyl-leucine; SITE 16: note = L-ornithine; SITE 17: note = Lysine is chemically mo
In the case of B3, the results for the Relative cAMP EC50, nM (0.1% casein) in assay [1], in assay [2] and in assay [3] were 2.86 nM, 0.00918 nM and 0.226 nM, respectively. The cAMP Rel EC50 (receptor-expressing HEK-293 cells, 1% HSA) was 333 nM in assay [1], 0.881 nM in assay [2] and 11.7 nM in assay [3].

B4: Example 460 (peptide)
chain: B1 chain with H1Y, A21X
modifications: synthetic construct; SITE 2: note = 2-Aminoisobutyric Acid; SITE 6: note = alpha-methyl-2-fluoro-L-phenylalanine; SITE 10: note = 3-(4-Pyridyl)-L-alanine; SITE 11: note = alpha-methyl-L-serine; SITE 13: note = alpha-methyl-leucine; SITE 16: note = L-ornithine; SITE 17: note = Lysine is chemically mo
As for B4, the Relative cAMP EC50, nM (0.1% casein) is 1.89 nM in assay [1], 0.0624 nM in assay [2] and 0.636 nM in assay [3]. For the same molecule, the figures for the cAMP Rel EC50 (receptor-expressing HEK-293 cells, 1% HSA) in assay [1], in assay [2] and in assay [3] were 142 nM, 8.93 nM and 31.1 nM, respectively.

B5: Example 453 (peptide)
chain: B2 chain with E12I
modifications: synthetic construct; SITE 2: note = 2-Aminoisobutyric Acid; SITE 6: note = alpha-methyl-2-fluoro-L-phenylalanine; SITE 10: note = 3-(4-Pyridyl)-L-alanine; SITE 11: note = alpha-methyl-L-serine; SITE 13: note = alpha-methyl-leucine; SITE 16: note = L-ornithine; SITE 17: note = Lysine is chemically mo
Turning to B5, the values for the Relative cAMP EC50, nM (0.1% casein) in assay [1], in assay [2] and in assay [3] were 7.37 nM, 0.0184 nM and 0.374 nM, respectively. For the same molecule, the cAMP Rel EC50 (receptor-expressing HEK-293 cells, 1% HSA) in assay [1] was determined as 261 nM; in assay [2], 1.95 nM; in assay [3] it was 20.6 nM.

B6: Example 449 (peptide)
chain: B1 chain with H1Y, A21N, L27I
modifications: synthetic construct; SITE 2: note = 2-Aminoisobutyric Acid; SITE 6: note = alpha-methyl-2-fluoro-L-phenylalanine; SITE 10: note = 3-(4-Pyridyl)-L-alanine; SITE 11: note = alpha-methyl-L-serine; SITE 13: note = alpha-methyl-leucine; SITE 16: note = L-ornithine; SITE 17: note = Lysine is chemically mo
Consider B6, for which the Relative cAMP EC50, nM (0.1% casein) is 11.5 nM in assay [1], 0.0205 nM in assay [2] and 0.568 nM in assay [3]. Also, the cAMP Rel EC50 (receptor-expressing HEK-293 cells, 1% HSA) in assay [1] turned out to be 424 nM; in assay [2] it was 1.66 nM; in assay [3] it was 18.9 nM.

B7: Example 450 (peptide)
chain: B2 chain with E12I, X21N, I27Q
modifications: synthetic construct; SITE 2: note = 2-Aminoisobutyric Acid; SITE 6: note = alpha-methyl-2-fluoro-L-phenylalanine; SITE 10: note = 3-(4-Pyridyl)-L-alanine; SITE 11: note = alpha-methyl-L-serine; SITE 13: note = alpha-methyl-leucine; SITE 16: note = L-ornithine; SITE 17: note = Lysine is chemically mo
With B7, the Relative cAMP EC50, nM (0.1% casein) in assay [1] was determined as 4.84 nM; in assay [2], 0.0448 nM; in assay [3], 0.43 nM. Further, the cAMP Rel EC50 (receptor-expressing HEK-293 cells, 1% HSA) in assay [1] is 553 nM; in assay [2], 3.75 nM; in assay [3], 18.4 nM.

B8: Example 462 (peptide)
chain: YXQGTXTSDXXIXLDXKAQXXFIEXLIEGGPSSGEPPPEEG
modifications: synthetic construct; SITE 2: note = 2-Aminoisobutyric Acid; SITE 6: note = alpha-methyl-2-fluoro-L-phenylalanine; SITE 10: note = 3-(4-Pyridyl)-L-alanine; SITE 11: note = alpha-methyl-L-serine; SITE 13: note = alpha-methyl-leucine; SITE 16: note = L-ornithine; SITE 17: note = Lysine is chemically mo
In the case of B8, the Relative cAMP EC50, nM (0.1% casein) in assay [1] turned out to be 1.69 nM; in assay [2], 0.0148 nM; in assay [3], 0.204 nM. Besides, the cAMP Rel EC50 (receptor-expressing HEK-293 cells, 1% HSA) is 183 nM in assay [1], 1.62 nM in assay [2] and 12.9 nM in assay [3].

B9: Example 471 (peptide)
chain: YXQGTXTSDYSILLDKKAQXAFIEYLEEGGPSSGAPPPEEG
modifications: synthetic construct; SITE 2: note = 2-Aminoisobutyric Acid; SITE 6: note = alpha-methyl-2-fluoro-L-phenylalanine; SITE 17: note = Lysine is chemically modified through conjugation of the epsilon-amino group of the Lysine side chain with (gamma-Glu)2-CO-(CH2)16-CO2H; SITE 20: note = 2-Aminoisobutyric
B9: the Relative cAMP EC50, nM (0.1% casein) worked out at 2.19 nM in assay [1], 0.0296 nM in assay [2] and 0.317 nM in assay [3]. For the same molecule, the cAMP Rel EC50 (receptor-expressing HEK-293 cells, 1% HSA) turned out to be 181 nM in assay [1], 5.45 nM in assay [2] and 37.9 nM in assay [3].

B10: Example 467 (peptide)
chain: YXQGTXTSDYXELLDKKAQXAFIEYLEEGGPSSGAPPPE
modifications: synthetic construct; SITE 2: note = 2-Aminoisobutyric Acid; SITE 6: note = alpha-methyl-2-fluoro-L-phenylalanine; SITE 11: note = alpha-methyl-L-serine; SITE 17: note = Lysine is chemically modified through conjugation of the epsilon-amino group of the Lysine side chain with (2-[2-(2-Amino-ethoxy)-e)
As to B10, the Relative cAMP EC50, nM (0.1% casein) was 9.34 nM in assay [1], 0.0855 nM in assay [2] and 0.358 nM in assay [3]. The cAMP Rel EC50 (receptor-expressing HEK-293 cells, 1% HSA) in assay [1] worked out at 850 nM; in assay [2] it was 10.7 nM; in assay [3], 36.4 nM.

B11: Example 468 (peptide)
chain: B10 chain with E12I
modifications: synthetic construct; SITE 2: note = 2-Aminoisobutyric Acid; SITE 6: note = alpha-methyl-2-fluoro-L-phenylalanine; SITE 11: note = alpha-methyl-L-serine; SITE 17: note = Lysine is chemically modified through conjugation of the epsilon-amino group of the Lysine side chain with (2-[2-(2-Amino-ethoxy)-e)
Consider B11, for which the Relative cAMP EC50, nM (0.1% casein) in assay [1] is 1.95 nM; in assay [2], 0.0222 nM; in assay [3], 0.466 nM. Further, the cAMP Rel EC50 (receptor-expressing HEK-293 cells, 1% HSA) was found to be 195 nM in assay [1], 4.76 nM in assay [2] and 30.7 nM in assay [3].

B12: Example 469 (peptide)
chain: B10 chain with E12I, A35E
modifications: synthetic construct; SITE 2: note = 2-Aminoisobutyric Acid; SITE 6: note = alpha-methyl-2-fluoro-L-phenylalanine; SITE 11: note = alpha-methyl-L-serine; SITE 17: note = Lysine is chemically modified through conjugation of the epsilon-amino group of the Lysine side chain with (2-[2-(2-Amino-ethoxy)-e)
For B12, the Relative cAMP EC50, nM (0.1% casein) is 1.34 nM in assay [1], 0.031 nM in assay [2] and 0.562 nM in assay [3]. In addition, the cAMP Rel EC50 (receptor-expressing HEK-293 cells, 1% HSA) in assay [1] came out at 155 nM; in assay [2], 4.24 nM; in assay [3], 61.7 nM.

B13: Example 446 (peptide)
chain: YXQGTXTSDXSIXLDKKAQXAFIEYLSEGGPSSGAPPPS
modifications: synthetic construct; SITE 2: note = 2-Aminoisobutyric Acid; SITE 6: note = alpha-methyl-2-fluoro-L-phenylalanine; SITE 10: note = 3-(4-Pyridyl)-L-alanine; SITE 13: note = alpha-methyl-leucine; SITE 17: note = Lysine is chemically modified through conjugation of the epsilon-amino group of the Lysine
Regarding B13, the Relative cAMP EC50 in assay [1] worked out at 8.34 nM; in assay [2], 0.0351 nM; in assay [3], 0.696 nM. The cAMP Rel EC50, nM (1% HSA) in assay [1] stood at 516 nM; in assay [2], 3.01 nM; in assay [3], 24.5 nM.

B14: Example 464 (peptide)
chain: B10 chain with Y10X, E12I
modifications: synthetic construct; SITE 2: note = 2-Aminoisobutyric Acid; SITE 6: note = alpha-methyl-2-fluoro-L-phenylalanine; SITE 10: note = 3-(4-Pyridyl)-L-alanine; SITE 11: note = alpha-methyl-L-serine; SITE 17: note = Lysine is chemically modified through conjugation of the epsilon-amino group of the Lysine
Regarding B14, the results for the Relative cAMP EC50, nM (0.1% casein) in assay [1], in assay [2] and in assay [3] were 1.25 nM, 0.072 nM and 0.466 nM, respectively. Further, the values for the cAMP Rel EC50 (receptor-expressing HEK-293 cells, 1% HSA) in assay [1], in assay [2] and in assay [3] were 194 nM, 19.9 nM and 45.5 nM, respectively.

B15: Example 465 (peptide)
chain: B10 chain with Y10X, E12I
modifications: synthetic construct; SITE 2: note = 2-Aminoisobutyric Acid; SITE 6: note = alpha-methyl-2-fluoro-L-phenylalanine; SITE 10: note = 3-(3-Pyridyl)-L-alanine; SITE 11: note = alpha-methyl-L-serine; SITE 17: note = Lysine is chemically modified through conjugation of the epsilon-amino group of the Lysine
As to B15, the results for the Relative cAMP EC50, nM (0.1% casein) in assay [1], in assay [2] and in assay [3] were 1.5 nM, 0.148 nM and 0.575 nM, respectively. For the same molecule, the results for the cAMP Rel EC50 (receptor-expressing HEK-293 cells, 1% HSA) in assay [1], in assay [2] and in assay [3] were 233 nM, 44.6 nM and 56.3 nM, respectively.
